Measurements from the nanobody polyreactivity screen of Harvey et al. (2022).

Test: yeast display, Sf9 membrane polyspecificity reagent, FACS + sequencing; frameworks hold sequencing errors
Outline: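 Nanobodies came from a synthetic yeast display library in Saccharomyces cerevisiae BJ5465, induced with galactose for 36–48 hours and stained for 1 hour at 4 °C with 10% biotinylated, detergent-solubilized Sf9 membrane reagent. Cells were enriched on streptavidin microbeads and then FACS-sorted, with low and high (top ~1%) gates set on anti-HA fluorescence for expression and streptavidin fluorescence for reagent binding. Each polyreactivity label reflects the gate a clone came from. Genes were amplified by colony PCR, sequenced by MiSeq 2 × 250 and filtered by CDR length.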

| Sequence | polyreactivity (PSR sort gate) |
| --- | --- |
| QVQHVESGGGLVQAGGSLRLSCAASGYIFSRYMGWYRQAPGKERQLVAAITRGGVSTYYADSVKGRFTISRDNAKNTVYLQMNSLKPEDTAVYYCATGRPVYYVASYDYDYWGQGTQVTVSS | low polyreactivity |
| QVQLVESGGGLVQAGGSLRLSCAASGSTFTHYAMGWYRQAPGKERELVAAISSGGSTYYADSVKGRFTISRDNAKNTVYLQMNILKPEDTAVYYCASDYYWHDWWYPHDYWGQGTQVTLSS | low polyreactivity |
| QVQLVESGGGLVQAGGSLRLSCAASGNTFGHYTMGWYRQAPGKERELVAAISWDDSSTNYADSVKGRFTISRDNAKNTVYLQMNILKPEDTAVYYCAKETELRTQYPYVYDYWGQGSQVTVSS | low polyreactivity |
| QVQLVESGGGLVQAGGSLRLSCAASGRIFDSNAMGWYRQAPGKERELVAYITSGGRTYYADSVKGRFTISRDNAKNTVYLQMNSLKAEDTAVYYCAVRSYKRGPLDYWGQGTQVTVSS | high polyreactivity |
| QVQLEESGGGLVQAGGTLRLSCAASVGIFNYYTMGWYREAPGKERELVAAITRGGSTYYADSVKGRFTISRDNAKNTVYLQMNSLKPEDTAVYYCAAVWRRYDKSPLEGSWGQGTQVTLSS | high polyreactivity |
| QVHLVESGGGLVQAGGTLRLRCAASGSIFCCNAMGWYRQAPGKERELVAAISTSGGTTYYADSVKGRFTISRDNAKNTVFLQMHSLKPEDTAVYYCAADVYSSRYLYDYWGHGTQVTVSS | low polyreactivity |
| QVQLVESGGGLVQAGGSLRLSCAASGSIFAIYVMGWYRQAPGKERELVAAISYRSGSTYYADSVKGRFTISRDNAKNTVYLQMNSLKPEDTAVYYCAATSRYYTFGYWGQGTQVTVSS | low polyreactivity |
| QVQLEESGGGLVQAGGSLRLSCAASGSTFEGYAMGWYRQAPGKERELVAVISSGSITKYADSVKGRFTISRDNAKNTVFLQINSLKPEDTAVYYCARKGGIIFASYLLGGYWGQGTQVTVSS | low polyreactivity |
| QVQLGESGGGLVQAGGSLRLSCAASGSSFWVNAMGWYRQAPGKETELVAAISRGSTYYADSVKGRFTISRDNAKNTVYLQRNSLKPEDTAVYYCNARYLYSHSRYARYHSWGQGTQVTVSS | high polyreactivity |
| QDQHVESGGGLVQAGGSLRLSCAASGITFNKYAMGWYRQAPGKERELVAAISFSGGSTYYADSVKGRFTISRDNAKNTVYLQMNSLKPEVTAVYYCAAVWGYVIWVDTAVYREYDYWGQGTQVTVSS | high polyreactivity |
| QVQIVESGGGLVQAGGSLRLSSPASGRTLPSYAMGWYRQAPGKERELVAAITRSGGRTYYADSVKGRFTISRDNAKYTVYLQMNSLKPEDTAVYDCAARQDDYGKIYYYWGQGSQVTVSS | high polyreactivity |
| QVQLEESGGGLVQAGGSLRLSCAASGSIFRRNVMGWYRQAPGKERELVADINYSGGSTFYADSVKGRFTISRDNAKNTVYLQMNSLKPEDTAVYYCKSSPYREKHGYWGQGTQVTVSS | low polyreactivity |
| QVQLLESGGGIVQAGGSLRLSCAASGRTFSRYVMGWYRQAPGKERELVATISRSGGSTFYADSVKGRFTISRDNAKNTVYLQMNSLKPEDTAVYYCNKKVQGYQVTYGYWGQGTQVTVSS | high polyreactivity |
| QVQLVESGGGLVQAGGSLRLSSASSGFTFNSYAMGWYRQAPGKERELVAAIDTGDDITYYADSVKGRFTISRDNAKNTVYLQMNSLKPVDTAVYYCAAKSRRQYTVGLSSDYWGQGTQVTVSS | high polyreactivity |
| QVQLVESGGGLVQAGGSLRLSCAASGLIFTRYTMGWYRQAPGKERELVAGISWSGGRTYYADSVKGRFTISRDKAKYTVYLQMNSLKPEDTAVYYCAADSYYSRAYDYWGQGTQVTVSS | high polyreactivity |
| QVQLVESGGGLVQAGGSLRLICAASGLTFDTYSMGWYRQAPGKERELVAAISIGGRTNYADSVKGRFTISRDNAKNTVYLQMNSLKPEDTAVYYCARVFRYNSYYLPYDYWGQGTQVTVSS | high polyreactivity |
| QVQLVESGGGLVQAGGSLRLSCAASGSTFVRNAMGWYRQAPGKERELVAAIRWRSGSTYYADSVKGRFTISRDNAKNTVYLQMNSLKPEDTAVYYCAVDYNSFRYGPLGYWGQGTQVTVSS | high polyreactivity |
| QVQLVESGGGLVQAGGSLRLSCAASGSTFNTNAMAWYRHAPGKERELVAAISWSSTRTYYADSVKGRFTISRDNAKNTVYLQMNSLKPEDTAVYYCAAATYQSRYFQRFDYWGQGTQVTVSS | high polyreactivity |
| QDQLVESGGGLVQAGGSLRLSCAASGFIFDLYAMGWYRQAPGKERELVAVISYDGGSTYYADSVKGRFTISRDNAKNTVYLQMNSLKPVDTAVYYCNTYAGLVSPSDLYDYWGQGTQVTVSS | low polyreactivity |
| QVQLVESGGGLVQAGGSLRLSCAASGIIFRYYTMGWYRQAPGKERELVAAITQSSGRTYYADSVKGRFTISRDNAKNTVYLQMNCLIPEDTAVFYCNVRPLRSYRAVDYWGQGTQVTVSS | high polyreactivity |
| QVQLVESGGGLVQAGGSLRLSCAASGRTFEPNAMGWYRPAPGKERELVAAISSSDGSTYYADSVKGRFTISRDNAKNTVYLQMNSLKPEDTAVYYCAADAGYLYDWPYNYYYWGQGTQVTVSS | low polyreactivity |
| QVQLVESGGGLVQAGGSLRLICAASGYIFTYNAMGWYRQAPGKERELVAAISSGDGRTYYADSVKGRFTISRDNAKNTVYLQMNSLTPEDTAVYYCNATRVVYRQAYLYGYDYWGQGTQVTVSS | low polyreactivity |

| Sequence | polyreactivity (PSR sort gate) |
| --- | --- |
| QVQLVESGGGLVQAGGSLRLSCAASGSIFAKYAMGWYRQAPGKERELVAVITSRGGTYYADSVKGRFTISRDNAKKTVYLQMNSLKPEDTAVYYCAARGGGQPVAYDYWGQGTQVTVSS | high polyreactivity |
| QVQLVESGGGLVQAGGSLRLSCAASGRTFGIYAMGWYRQAPGKERELVAAISRGGNTYADSVKGRFTISRDNAKNSVYLQMNSLKPEDTAVYYCAADRRYRPGDYWGQGTQVTVSS | high polyreactivity |
| QVQLVESGGGLVQAGGSLRLICAASGFIFDYNTMGWYRPAPGKERELVAGITSGGSTNYADSVKGRFTISRDNAKNTVYLQMNSLKPEDTAVYYCATVDDEYYGYDYWGQGSQVTVSS | low polyreactivity |
| QVQLVESVGGLVQAGVSLRLSCAASGITFYGYAMGWYRQAPGKERELVATSTSGGSTYYADSVKGRFTISRDNAKNTVYLQMNSLKPVDTAVYYCAASRWYRRTRYGYWGQGTQLTVSS | high polyreactivity |
| QVQLVESGGGLVQAGGSLRLSSAASGRTFGGYAMGWYRQAPGKERELVAAISWTGGSTYDADSVKGRFTISRDNAKNTVYLQMNSLKPEDTAVYYCNRDVGRNYQGPEYYYWGQGTQVTVSS | low polyreactivity |
| QVQLVESGGGLVQAGGSLRLSCAASGRIFSPSDMGWYRQAPGKERELVAAIRSDGGRTHYADSVKGRFTISRDNAKNTVYLQMNSLKPEDTAVYYCARDNGRTITTTDTYDYWGQGTQVTVSS | low polyreactivity |
| QVQLVESGGGLVQAGGSLRLSCAASGFIFGSYAMGWYRQAPGKERELVAAITSDGNTDYADSVKGRFTISRDNAKNTVYLQMNSLKPEDTAVYYCNKPYGAETALREFDYWGQGTQVTVSS | low polyreactivity |
| QVQLVESGGGIVQAGGSLRLRCAASGFTFERYSMGWYRQAPGKERELVATITRRSGRTSYADSVKGRFTISRDNATNTVYLQMNRLKPEDTAVYYCAVDDAYPDRYDYWGQGTQVTVSS | high polyreactivity |
| QVQLVESGGGLLQAGGSLRLSCAASGRTFRYYTMGWYRQAPGKEREFVAAISSTGRTYYGDSVKGRFTISRDNAKNTVYLQMNSLKPEDTAVYYCAATFIQVVVNVQLYDYDYWGQGTQVTVSS | low polyreactivity |
| QVQLVESGGGLVQAGGSLRLSCAASGRIIYGYARGWYRQAPGKERELVAAISASGGRTYYADSVKGRFTISRDNAKNTVYLQMNSLKPEDTAVYYCARARFYWLTQWSYDYWGQGTQVTVSS | high polyreactivity |
| QVQLVESGGGLVQAGGSLRLSCAASGSIFWGYAMGWYRQAPGKERELVAAITRGDTTNYADSVKGRFTISRDNAKNTVYLQMNSLKPEDTAVYYCAATPDPPHTYEYWGQGTQVTVSS | low polyreactivity |
| QVQLVESGGGLVQAGGSLRLSCAASGSTFYTNAMGWYRQAPGKERELVASITDGGDSTHYADSVKGRFTISRDNAKNTVYLQMNSLKPEDTAVYYCAVDYQYFQEYDSWGQGTQVTVSS | low polyreactivity |
| QVQLVESGGGLVQAGGSLRLSCAASGSTFPSYAMGWYRQAPGKERELVAAINRSGGSTYYADSVKGRFTISRDNAKNTVYLQMNSLKPEYTAVYYCATGLTTGGGYYWGQGTQVTVSS | high polyreactivity |
| QVQLVESGGGLVQAGGSLRLSCAASGFIFAYYAMGWYRQAPGKERELVAAISSGGRTYYADSVKGRFTISRDNAKNTVYLQMNSLKPEDTAVYYCAAYYRLDYDYWGQGTQVTVSS | high polyreactivity |
| QVQLVESGGGLVQAGGSLRLSCAASGSIFYRYAMGWYRQAPGKERELVASISSGVSTNYADSVKGRFTISRDNAKNTVYLQLNSLKPEDTAVYYCAVRHRYTRAYWGRDYWGQGTQVTVSS | low polyreactivity |
| QVQLVESGGGLVQAGGSLRLSCAASGRTFAVYAMGWYRQATGKERELVAAISSGGSTYYADSVKGRFTISRDNAKNTVYLQMNSLKPEDTAVYYCTARWGYRRGYCGQGTQVTVSS | high polyreactivity |
| HVQLQESGGGLVQEGGSLRLSCAASGSIFQATYMGWYRQAPGKELEFVASITYGSITNYADSVKGSFTIGRDNAKDTLYLQMNSLKPEDTAVYYCAVDRHYIPDFHYWGQGTQVTVSS | low polyreactivity |
| QVQLVESGGGLVQAGGRLRLSCAASGRTFYYYAMGWYRQAPGKERELVAAISWSGGRTYYADSVKGRFTISRDNAKNTVYLQMNSLKPEDTAVYYCNAETAAAQASYDRLDVLLDYWGQGTQVTVSS | low polyreactivity |
| QVQLVESGGGLVQAGGSLRLSCAASGSIFRRNAMGWYRQAPGKERELVAAINSRGGSTYYADSVKGRFTISRDNAKNTVYLQMNSLKPEDTAVYYCATARFLRYDRYDDYWGQGTQVTVSS | low polyreactivity |
| QVQLVESGGGLVQAGCSLRLSCAASGSTFFRYAMGWYRQAPGKERELVAAITSGGNTYYADSVKGRFTISRDNAKITVYLQMNSMKPEDTAVYYCAADVYHWIHEYDYWGQGTQVSVSS | low polyreactivity |
| QVQLVESGGGLVQAGGSLRLSCAASGSIFRYYGMGWSRQAPGKERELVAAITWRGSSTYYADSVKGRFTISRDNAKNSVYLQMNSLNPEDTAVYYCAAYSASYGGYDYWGQGTQVTVSS | high polyreactivity |
